{"source": "paper PMC3391682", "about": "“Structure of the Glycosyltransferase EryCIII in Complex with its Activating P450 Homologue EryCII” (Journal of Molecular Biology, 2012)", "binders": {"B1": {"name": "EryCII, activating P450 homologue (auxiliary protein) of EryCIII (natural protein)", "chain": "MTTTDRAGLGRQLQMIRGLHWGYGSNGDPYPMLLCGHDDDPQRRYRSMRESGVRRSRTETWVVADHATARQVLDDPAFTRATGRTPEWMRAAGAPPAEWAQPFRDVHAASWEGEVPDVGELAESFAGLLPGAGARLDLVGDFAWQVPVQGMTAVLGAAGVLRGAAWDARVSLDAQLSPQQLAVTEAAVAALPADPALRALFAGAEMTANTVVDAVLAVSAEPGLAERIADDPAAAQRTVAEVLRLHPALHLERRTATAEVRLGEHVIGEGEEVVVVVAAANRDPEVFAEPDRLDVDRPDADRALSAHRGHPGRLEELVTALATAALRAAAKALPGLTPSGPVVRRRRSPVLRGTNRCPVEL", "notes": "printed mass 40.7 kDa; also called helper protein"}}, "target": "T1, glycosyltransferase EryCIII (UniProt A4F7P3 1-421)", "T1 construct": "EryCIII, glycosyltransferase that attaches TDP-D-desosamine to 3-alpha-mycarosylerythronolide B in erythromycin D biosynthesis; printed mass 48.1 kDa (47,961 Da measured, loss of the N-terminal methionine); Se-Met-labelled protein was used for phasing; also called GT EryCIII; source: E. coli BL21 (DE3) codon plus RP, co-expressed with the S. coelicolor chaperonins GroEL1, GroES and GroEL2, …", "T1 sequence (looked up)": "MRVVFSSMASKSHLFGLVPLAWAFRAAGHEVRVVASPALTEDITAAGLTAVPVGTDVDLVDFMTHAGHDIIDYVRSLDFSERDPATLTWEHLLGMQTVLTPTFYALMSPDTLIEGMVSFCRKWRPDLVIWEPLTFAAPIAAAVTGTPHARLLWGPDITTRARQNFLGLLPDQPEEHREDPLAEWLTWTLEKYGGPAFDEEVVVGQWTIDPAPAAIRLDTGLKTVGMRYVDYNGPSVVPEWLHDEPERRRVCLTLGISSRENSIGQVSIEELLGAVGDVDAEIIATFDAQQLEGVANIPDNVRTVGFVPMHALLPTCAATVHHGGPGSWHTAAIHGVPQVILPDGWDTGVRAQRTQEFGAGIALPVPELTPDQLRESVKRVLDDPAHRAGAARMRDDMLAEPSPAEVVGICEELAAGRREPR", "assay": "AUC; sedimentation velocity of the co-expressed, co-purified EryCIII·EryCII complex in 2 mM DTT, 293 K, 50,000 r.p.m.; c(S) and c(M) analysis, taken together with band intensities on a denaturing polyacrylamide gel", "conditions": "both partners purified"}
{"binder": "B1", "values": [{"measurement": "stoichiometry N", "result": 1}]}
